# Measured values as given in the supplement of paper PMC9112550, “Optimization of the antimicrobial peptide Bac7 by deep mutational scanning” (BMC Biology, 2022).
# Tested on: Escherichia coli TOP10
# Assay: shrunken log2 fold change of peptide-encoding DNA abundance (4.5 h post-induction vs induction); higher = less antimicrobial activity (less host growth inhibition)
# Details: time post-induction: 4.5 h; library: site-saturation at positions 5, 18, 19, 20
# 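Note: peptides expressed intracellularly from a pBAD plasmid library in pooled LB shake-flask culture, induced with 0.3% L-arabinose, DNA abundance read by NGS, three biological replicates, DESeq2 with apeglm shrinkage.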
row,Sequence,shrunken log2 fold change
1,RRIRDRPPRLPRPRPRPVINPRP,-0.0846
2,RRIRCRPPRLPRPRPRPPSRPRP,0.558
3,RRIRRRPPRLPRPRPRPRRIPRP,0.251
4,RRIRGRPPRLPRPRPRPIHTPRP,0.0205
5,RRIRIRPPRLPRPRPRPNSLPRP,-0.457
6,RRIRWRPPRLPRPRPRPICDPRP,0.0755
7,RRIRSRPPRLPRPRPRPYIYPRP,-0.778
8,RRIRIRPPRLPRPRPRPASYPRP,-0.0337
9,RRIRRRPPRLPRPRPRPLRYPRP,0.463
10,RRIRFRPPRLPRPRPRPDYIPRP,0.209
11,RRIRARPPRLPRPRPRPFMDPRP,0.00846
12,RRIRCRPPRLPRPRPRPRPPPRP,1.49
13,RRIRPRPPRLPRPRPRPWWCPRP,-0.258
14,RRIRPRPPRLPRPRPRPVPRPRP,0.531
15,RRIRHRPPRLPRPRPRPVWPPRP,0.217
16,RRIRGRPPRLPRPRPRPADSPRP,0.283
17,RRIRYRPPRLPRPRPRPAWKPRP,0.0184
18,RRIRHRPPRLPRPRPRPTLAPRP,0.382
19,RRIRRRPPRLPRPRPRPGHRPRP,0.192
20,RRIRERPPRLPRPRPRPMTWPRP,0.0575
21,RRIRTRPPRLPRPRPRPCCIPRP,-0.155
22,RRIRIRPPRLPRPRPRPTDAPRP,-0.0317
23,RRIRLRPPRLPRPRPRPNGHPRP,-0.0365
24,RRIRYRPPRLPRPRPRPAEEPRP,0.0567
25,RRIRFRPPRLPRPRPRPKDEPRP,-0.13

row,Sequence,shrunken log2 fold change
1,RRIRTRPPRLPRPRPRPCEMPRP,0.0671
2,RRIRWRPPRLPRPRPRPKSAPRP,0.606
3,RRIRARPPRLPRPRPRPWFEPRP,-0.0275
4,RRIRPRPPRLPRPRPRPLCLPRP,-0.294
5,RRIRDRPPRLPRPRPRPEAYPRP,-0.0102
6,RRIRYRPPRLPRPRPRPCFFPRP,-0.619
7,RRIRNRPPRLPRPRPRPICWPRP,-0.0674
8,RRIRFRPPRLPRPRPRPTQTPRP,-0.199
9,RRIRVRPPRLPRPRPRPDQKPRP,0.002
10,RRIRRRPPRLPRPRPRPRKGPRP,0.215
11,RRIRLRPPRLPRPRPRPGDTPRP,-0.238
12,RRIRIRPPRLPRPRPRPALWPRP,0.199
13,RRIRWRPPRLPRPRPRPFKKPRP,0.149
14,RRIRDRPPRLPRPRPRPLGPPRP,0.191
15,RRIRIRPPRLPRPRPRPVAVPRP,-0.104
16,RRIRFRPPRLPRPRPRPSNRPRP,-0.381
17,RRIRHRPPRLPRPRPRPPMQPRP,0.268
18,RRIRGRPPRLPRPRPRPLYMPRP,0.185
19,RRIRLRPPRLPRPRPRPRRKPRP,-0.00224
20,RRIRTRPPRLPRPRPRPKPHPRP,0.0899
21,RRIRVRPPRLPRPRPRPGMQPRP,0.116
22,RRIRERPPRLPRPRPRPQLHPRP,-0.216
23,RRIRNRPPRLPRPRPRPSCIPRP,-0.507
24,RRIRPRPPRLPRPRPRPPWYPRP,-0.195
25,RRIRLRPPRLPRPRPRPTYSPRP,-0.572

row,Sequence,shrunken log2 fold change
1,RRIRCRPPRLPRPRPRPTKTPRP,0.137
2,RRIRLRPPRLPRPRPRPNYYPRP,-0.773
3,RRIRYRPPRLPRPRPRPAMFPRP,-0.229
4,RRIRSRPPRLPRPRPRPGCWPRP,0.593
5,RRIRCRPPRLPRPRPRPVEWPRP,0.000166
6,RRIRLRPPRLPRPRPRPFWDPRP,0.184
7,RRIRDRPPRLPRPRPRPPKMPRP,0.166
8,RRIRPRPPRLPRPRPRPAPNPRP,1.16
9,RRIRSRPPRLPRPRPRPTYSPRP,-0.453
10,RRIRMRPPRLPRPRPRPFGFPRP,-0.0868
11,RRIRDRPPRLPRPRPRPAIIPRP,0.0892
12,RRIRVRPPRLPRPRPRPSTRPRP,0.552
13,RRIRWRPPRLPRPRPRPQEPPRP,0.316
14,RRIRGRPPRLPRPRPRPTDQPRP,0.846
15,RRIRYRPPRLPRPRPRPNMPPRP,-0.304
16,RRIRERPPRLPRPRPRPTHSPRP,-0.335
17,RRIRGRPPRLPRPRPRPLDSPRP,0.217
18,RRIRCRPPRLPRPRPRPHWLPRP,-0.311
19,RRIRTRPPRLPRPRPRPTCWPRP,0.00427
20,RRIRWRPPRLPRPRPRPRCHPRP,0.33
21,RRIRPRPPRLPRPRPRPFHTPRP,-0.569
22,RRIRGRPPRLPRPRPRPSMEPRP,0.467
23,RRIRNRPPRLPRPRPRPVIKPRP,-0.375
24,RRIRWRPPRLPRPRPRPPHHPRP,0.214
25,RRIRARPPRLPRPRPRPGALPRP,1.22
